According to patent US9512196B2, “Short-form human MD-2 as a negative regulator of toll-like receptor 4 signaling” (Cedars-Sinai Medical Center, priority 2008, dated 2016):

System: lung inflammation induced by LPS
Assay: LPS-induced lung inflammation in mice after in vivo plasmid transfection
Design: species or system mouse
Protocol: (A) MD-2s expression can be detected following in vivo transfection. RNA was isolated from lung tissue of wild-type mice at 48 h post in vivo transfection with control vector (lane 1), Myc-MD2 (lane 2) or a plasmid encoding MycMD-2s (lane 3) and reverse transcribed into cDNA. RT-PCR using human MD-2-specific primers (lanes 1-3) or murine GAPDH primers (lanes 4-6), was then performed. (B-E) Wild-type mice were transfected with control vector (EV, open bars) or a plasmid encoding MD-2s (black bars) 48 h before being challenged intratracheally with PBS or 10 μg of LPS, for 24 h. MD-2s expression reduced (B) IL-6 concentration in bronchoalveolar lavage fluid (BALF), (C) KC concentration in the lung homogenate, and (D) recruitment of polymorphonuclear leukocytes (PMN) into the lung.

[1] = plasmid encoding MD-2s 48 h before 10 μg LPS intratracheally, 24 h, vs control vector

B1: MD-2s: alternatively spliced isoform of human MD-2 lacking exon 2, with D38G substitution; expressed and secreted protein sequences in Table 1 (protein, listed as Homo sapiens)
chain 1: MLPFLFFSTLFSSIFTEAQKQYWVCNSSDASISYTYCGRDLKQLYFNLYITVNTMNLPKRKEVICRGSDDDYSFCRALKGETVNTTISFSFKGIKFSKGKYKCVVEAISGSPEEMLFCLEFVILHQPNSN
chain 2: EAQKQYWVCNSSDASISYTYCGRDLKQLYFNLYITVNTMNLPKRKEVICRGSDDDYSFCRALKGETVNTTISFSFKGIKFSKGKYKCVVEAISGSPEEMLFCLEFVILHQPNSN
Question: For B1, which “Percentage of GR-1+CD11b+ cells in the lung following LPS challenge” value (flow cytometry, control without MD-2s expression 66.7%) is on record?
Answer: Its value is 26.1%.

Question: What about the “IL-6 concentration in bronchoalveolar lavage fluid (BALF)” value [1] of the same molecule?
Answer: Its value is “reduced”.

Question: And the “KC concentration in the lung homogenate” value [1]?
Answer: The value was “reduced”.

Question: What about the “Recruitment of polymorphonuclear leukocytes (PMN) into the lung” value [1] of the same molecule?
Answer: The value was “reduced”.
